Assay results: the DeepSol protein solubility set

Assay: soluble on expression in E. coli; label from the status in PepcDB or PDB records

Sequence	soluble on expression in E. coli
GTTDAQGFATVEIKQSQGVGLSTPLNIVPVNSYIPNTVNYNVIFTTLTSPDAVGAQMWGHMDETITVDALTFARPRLAAEVFSPDGTLTENNEVWSRVSQANASSTSKGGCGANMLPRRSQLSALYDANNGNGVQTVHGWPTQRQPYWSSSPADQVPHYYTIALNDGARTVGGSTAVYVSCLTTANNP	not soluble
MNLFASEIFVFTPKGEIKTMPQNCTALDFAFSIHTFLGSHCIGAKVNHKLVPLSHKLQSGDQVEILTSKSQHVQPLEHHHHHH	not soluble
MGSDKIHHHHHHMYEENIYIKNSEYEFDNNLKQLASYLNIPVSIVRPYKEDLTLYQYKKGQVIYHSTDQIKFVYFLVNGCILHESSNITGDNYLRLSKDENIFPMNFIFNETPAPYEICTALTDCKILTLPKDLLEYLCRKHNEIFESLFKKLNETIQFQVEYIMALRANSAKERIERILQILCLSIGDDNGEFYELKQIMTVQLISNLSGLNRKTTGEIIRELKTENIIYQDKRNWIIKK	not soluble
MDNLKAELAQAKIDIDQLEKKQWETLEQLVMRDKLIEQCSLHTEILQKDFRESEARIIQLEQQLLEPGECGSELRATIKNQEELLKKQSEEIERCKEESRMLIQQKEEMENIHSEEIFGKNKTISNLRKQIDGDVERKKAKIRTLRKELCSADMNTGKMCRRAKRAEDRIAKLESDLEEERQKHVGQDISHILDQHNSTVMALEMQLANTQQEKATLNTSVEDLKLRTEEWKHNLLGQFEVLTANSKRECESKEEQIANHKREIMEKDSKIECLMELIQNSERSAEIQKMHDALREKDLKISELSEKLQGLLINQEGEADDTMIDQDDDNKSTHSEDSDGWDKINAI	not soluble
MLLAYQSVIASITYLNPNIRFQLSRRCPSLKSAEKSAPLFINKLKLCTNSVVVNDISYEVDVYKTSEAVLLTYNTDLDVFGSIDFDLEIEEQNEILLDHRTYMAERMRLEREVLGLMTHSRNPNADLSRLMEINRLNKIRIQAREDRREVPNTPPEPPLVQVIEFAVMETDNYGDCLENEQLTYDRKLHDAVKYIMEKLFCGRKTPVHLSTLSINSFGILRIPLNMRFKIRHLKLVSGHANEIASKIRPIIEDSSFPLKSIIIKDPVEFDDPIYHSTQLLVLRHQLENRSPRFLNVKVLPNQLYVTTKILNWVQQARPVGTCWEFVGIDKNSKRQCVQKLMQIPGAMRALHTKLCWIILPANDDSEIHVTVAQDKINSKQFSIKLTVY	not soluble
MSSPGGGTRFALVAGTTETAGRAGISAAGADPELMSVTPAADAELVTYGTPVRTDVTPVSPSGCPTPALVTRAAREVLGFDVTVVDGGLAEKTGAPTVSVGARPGKDIAEQDPVSTAHGAFAAARQFGQSLPADELYLGETIPGGTTTALGVLRALGEDGMVSSSLPENPTAQKSEVVAEGLQASSLEPGDAANEPKRAVRRMGDPVLATLAGLTAGAVESDTAVTLAGGSQCVAVAALVRHGGYEGPLGLATTSYVADDESADVRASVDRLDLDLTVTDPGFDRSDHVAMERFVAGEAKEGVGMGGALALADRAGIPMAEVRDRFAAIYDDLIGDAPTATAEERT	not soluble
MGSDKIHHHHHHMSDIPYQTIDTRALHRFAQPDRIAPAMYHDPALFEAELDRIFYRTWIWVAHDSELPNPGDFITTTIGRQPVIVVRDKTGEINVLQNRCRHRGATVCESHKGNAKGFTCPYHSWSYALDGTLRALPYGDGYEGVCEKGDLPLVKLRVGVYQGLIFASFNDDIEPLEDFLGGAKPWIDLFMKQGAGYPIKANGEHKFKFKGNWKIQLENTTDLYHFPVVHKSWMKSIDDETAAAITSFMTSEHAFCRALGNGHSLAVLMPELIDLDEDDGAPLPERFAPLAATLAERHAPDEVRRIVRSLLGVGFNLNLFPNLALSMAFFRVLRPISANETEIRHVALAMDGGPDEANRERLRIHEHFQGPFGFGSPDDAEAWERVQRGAHAGPDVPILVNRGLNRETTAANGEKTAHATDETGMREAYQQWRKLMEQA	not soluble
MGSDKIHHHHHHMKRVQNLLVAVGLSPNYHRRTYPSGKKSLVVRFYATLTPGLEDVAAKEVESFGCKVEEIRERRGRIFFSGEKSAIPLLNHFSRTLERLNVLLLRCEVEGLDDIYAAVKGLDFSFVKGKSFAIRSLRVGEHDFTSMDIARVAGQAVIDSFMESYGERLKVNLNQPDVIIRVELVDSELFVGVDTTGDDAMHKRWWRVYNHPAHLNAAIACGMLRIADWKVDESLIDPMCGSGTIPIEAALMVRNVPNLRDFAYKKLCEWELAFEPNEVRLKLYGMEKFRKHLVGAIRNAVNAGVADTIEFRQGDATEMTGEYDVIITNPPYGLRIHRKGAIERLYHSFARAAKRCMNQNSRLVIITAEHRVFANAAEEAGLQCTHERFVKYGGLLTKIMVFMI	not soluble
DCCSCQEKWVGYRCNCYFISSEQKTWNESRHLCASQKSSLLQLQNTDELDFMSSSQQFYWIGLSYSEEHTAWLWENGSALSQYLFPSFETFNTKNCIAYNPNGNALDESCEDKNRYICKQQLI	soluble
MSLDYAQRAVQVDPPRRLTHEMDSWARNFVMLRTDVQGRPINRLEGVYVEHFPDDDSYHVTTPRAIGQQAGNPITIGVSKTAIMEQGGQRIVMNGDAHVHRQPDARNETLDVRSQQLILLPDDDVVFTDLPAQVNKGNSRMNGTGMHYNNKTRQLRVSAAADVEIAGTEGRKRQSTETPANSNQNKPEGHHHHHH	soluble
PPPAPIPDLKVFEREGVQLNLSFIRPPENPALLLITITATNFSEGDVTHFICQAAVPKSLQLQLQAPSGNTVPARGGLPITQLFRILNPNKAPLRLKLRLTYDHFHQSVQEIFEVNNLPVESWQ	soluble
MAETPNQRITEINLNKEMRTSFLDYAMSVIVARALPDVRDGLKPVHRRILYAMNDLGMTSDKAYKKSARIVGEVIGKYHPHGDTAVYFTMVRMAQDFSYRNMLVDGHGNFGSVDGDMAAAMRYTEARMSKISMELLRDINKDTIDYADNYDGSEREPVILPARFPNLLVNGSSGIAVGMATNIPTHHLGEVIDGVLALSHDPEITIRDLMEYIPGPDFPTAGMIMGRSGIRRAYESGRGSITVRGRVDIEEKKNGKETIVITEIPYQVNKARLVERIAELAREKKIDGITSLNDESDRSGMRIVIEVRRDISASVIVNNLFKMTALQTTFGINMLALVDNHPKVLNLKEILYYYLEHQKVVIRRRTEFELRKAEARAHILEGLRIALDNIDAIIKLIRGSKTSDVAKEGLMTQFNLSDKQAQAILDMRLQRLTGLEREKIEEEYQNLVALINDLKAILADDERILEIIREELEEIKVKYADKRRTEILAGDLVSLEDEDLIPEEEVAITLTKRGYIKRLPLSTYRSQRRGGRGIQGMSTHEDDFVEHLVATSTHDTLLFFTNTGKVYRSKGYEVPEYGRTAKGIPIINLLGIESQEQVNAVINLSEFTDDSYLFFTTKHGVVKRTTLSQFAKIRQSGLRAVELRENDELISVQMTDGSKNMIIATKHGQSIYFPEENIRVMGRTAAGVRGIRLREDDEVIGMEVLEDDEKVLVVTEKGYGKQTPASQYPLRNRGGMGVKTVTITEKNGNLVAMKTVTGEEDLMLMTVSGVLIRFEIDTVSQTGRSAMGVKLIRLDEDEKVATVAKVPKEEDEVELEEEIDETLITQVPDESFEDAPGSDIEE	not soluble
MGSDKIHHHHHHMNRMAGCINDHLKRYGGLAAGREDEQKRYFAEKRLYALQIETTDACQQGCIFCYAGSTPREHHGLTSDEIRGLLRDAAALEIRAIDWLGGDPLVRPDWYELMQYARSLGLVNNVWTSGLPLKSKEVAARVHEVSEGGFVSVHVDSITPEVYAKLHRGGNPHFIEAIVEGVDNLLALGKPADMMINCITYTSLQGPEDAIKTMRWWFCEKGLRTCLTMFNPAGMGAEWRSLEPQLDEVQRVYTERDRIDYGGDNISIAAMDTDKYYCGTMATVTFTGDVTPCSVIREGVANIRTTPFRDIVARHLDTLVHAALHDVQNLPNPCNDCVNNAHCWGCRASAYHYSGDADGLDPKCWLIRTALTSDSFSVNNNLQKSTDEEIGLKP	not soluble
MTTRTRILTGITTTGTPHLGNYAGAIRPAIVASRDSNADSFYFLADYHALIKCDDPLRIQRSRQEIAATWLAGGLDVERVTFYRQSDIPEIPELTWLLTCVAAKGLLNRAHAYKASVDKNVEAGEDPDAGITMGLYSYPVLMAADILMFNAHKVPVGRDQIQHVEMARDIGQRFNHLFGQGKEFFTMPEALIEESVATLPGLDGRKMSKSYDNTIPLFTSAKDMKDAISRIVTDSKAPGEAKDPDNSHLFTLYQAFSTPAQAAEFRSELLHGLGWGEAKNRLFQLLDAELGEARERYHQLIARPSDLEDILRAGAVKARAVATPFLNELREAVGLRSFAAQVQVAATTKKKAAKAARFISFREDDGSFRFRLLSADGEQLLLSRNFADGKAAGAVTKQLQSGQELDLRTEGNAFGIWLDGACVADSPDFADASARDAAVDALRIALTPAQDLEHHHHHH	soluble
MAEKSLITQETVGMTDEGLPPVLQGRNNSTQQVSFLRARVKCTDQGLITKIGVLPRGAFIKSIKIYAMTDFEDVTATFGKEPHGNDYGDVGLTQSTDSNVYIPMEERDVPLEVENTIYMTRDKKSSKGDVEVIVEFYTNR	not soluble
MGSDKIHHHHHHMNEREICERIAEILNLEHDCSKGIDDLLKILEYEINEYRKSLEEQAMFMEAQIEELSRSYEEISTLLEISEIFGTFEFPLNLQDKLEKVIRLLRNVIKFESYLVHLESELTVGDLNREEIEPEIGNPEKTVLIEPGKSEKFSNLLFVPIKGNKYYGYVCFVGKEDGGVFTAGDRKIAEMTARYIASALDRLDFLKKEIERERLEEQLNIARQIQTNLLPRKIPEIGFVEADACSQPAVQVGGDYYDFFVSQEKRFLTVVGDVAGKSVPAALLMSAVRSYLKVLVTTCPDLEKLVNRLNTILCEDMTNDRFVTMAFIEISPDGTLNLINAGHNPVYFLHKGELVKIEASAIPIGITEWEYKKHTIHLKPDTFVISYSDGLTEARNEAGEEFGYERLEKILREFKGETPAELLEALRKRVKSFMGDAQQHDDMTIVVLKYKGQQEVE	not soluble
AVREEIAGALYLGHSEGVVEKEDRDRILGALDLAERTVEEIMLHRSNIVMLDADAEPETILEHCLQSPHTRLPVYRGEPENIIGVVHAKDLFRAMYAQVGGSEGHTARLKDFDISRVANAPYFVPETTTLDDQMRAFLRMRSHFALVVDEYGSLRGLITLEDILEEIVGEIT	not soluble
SNAMADKIKVGLLGYGYASKTFHAPLIMGTPGLELAGVSSSDASKVHADWPAIPVVSDPQMLFNDPSIDLIVIPTPNDTHFPLAQSALAAGKHVVVDKPFTVTLSQANALKEHADDAGLLLSVFHNRRWDSDFLTLKTLLAEGSLGNVVYFESHFDRYRPEIRQRWREQAGAGGGIWYDLGPHLLDQALQLFGLPETLNVDLGMLRPGSQSVDYFHAVLSYPGQRVVLHSTVLAAAETARYIVHGTQGSYIKFGVDPQEDRLKAGERLPQADWGYDMRDGIVTLSHDNVLTEKPLLTLPGNYPAYYAGIRDAIWGTAPNPVPATEAIKVMELIELGIASDQQKKALPIIAKN	soluble
QAMKELSKSDRTRQFIIESTAPVFNVKGLAGTSLTDLTEATNLTKGSIYGNFENKEAVAIAAFDYNWGHVKSVLTAKVQACNTYKEMLLVYSSMYNDADGSLFPVGGCPLLNTTIEADDTHDALRKKAGEAILSWKKNLVTIIKKGIQAKEFRPDTDVTKIAFSMIALVEGAILIHRATKNRAYSDYVFESLEDLIAGIEVKKK	soluble
MTEKHKTMGKFKVIVLAGTAGTGKSTIAGELIHEFKDIYPDLKFIEGDDLHPPANVEKMTRGIPLNDDDRWDWLKKVAVESTKAAASTKEHLSIVACSSLKKKYRDLIRHTCPESEFHFIFLYASKIEVLKRLKTRKGHFMKADMMESQFRDLELPDINDETDCDIVPLDFKTFYQIEKDVIQVVKSKVLNIE	not soluble
